Residue numbers refer to the chain shown, from its start. In names and notes the source's numbering stands.
Legend:
[1] = system: plant-derived isoprene synthase (IspS; EC 4.2.3.27); conditions: DMAPP as substrate to produce isoprene; background art; cited from earlier work
[2] = target: T1, alkaliphilic Bacillus sp. N16-5 IspH protein, wild type, SEQ ID NO: 2 (Salipaludibacillus agaradhaerens, UniProt A0A9Q4B1R3); experiment: Kinetic parameters of the enzymatic reaction converting DMAPP to isoamylene by wild-type IspH protein; assay type: biochemical; conditions: DMAPP as substrate to produce isoamylene; DMAPP 0-1.0 mM; pH 7.8, 37° C., 1 mM NADPH, ferredoxin/ferredoxin-NADP+ reductase, anaerobic
T1 sequence (A0A9Q4B1R3 1-318): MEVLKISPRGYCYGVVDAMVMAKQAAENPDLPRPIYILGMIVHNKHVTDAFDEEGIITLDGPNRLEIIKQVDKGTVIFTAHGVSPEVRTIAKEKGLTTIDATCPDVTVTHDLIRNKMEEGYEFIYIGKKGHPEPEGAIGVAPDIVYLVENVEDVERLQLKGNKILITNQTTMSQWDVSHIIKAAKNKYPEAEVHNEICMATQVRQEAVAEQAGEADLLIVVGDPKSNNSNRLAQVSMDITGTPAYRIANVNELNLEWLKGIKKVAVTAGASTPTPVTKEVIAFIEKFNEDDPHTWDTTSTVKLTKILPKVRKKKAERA

[3] = In vitro activity assay using IPP as a substrate; assay type: biochemical
Experimental: (§1) Under anaerobic conditions, in a sealed 5 ml chromatotube, IspH protein and its mutants were determined for their activity, wherein the reaction system comprised: 150 mM NaCl, 20 mM Tris-HCl (pH 7.8), 2 mM DTT, 1 mM NADPH, 1 mM DMAPP, 20 μM ferredoxin, 5 μM ferredoxin-NADP^+ reductase, and 0.5 μM IspH protein or its mutants (H131N and E133Q) obtained above; the total reaction volume was 500 μl; and the reaction condition was incubation at 37° C. for 1 h.
In addition, IPP was used as a substrate to repeat the experiment.

[4] = In vitro activity assay using DMAPP as a substrate (headspace gas GC-MS, kinetic parameters); assay type: biochemical; conditions: 1 mM DMAPP, 0.5 μM protein, 37° C. 1 h
Experimental: as §1
After the reaction, the headspace gas in the chromatotube was collected, and was subjected to gas chromatography-mass spectrometry (GC-MS).
In order to determine the kinetic parameters of the wild-type IspH protein, DMAPP at different concentrations (0, 0.1, 0.2, 0.3, 0.4, 0.5, 1.0 mM) was used to repeat the experiment.

[5] = Acid treatment of the reaction solution to determine DMAPP (isoprene in headspace gas by GC-MS); assay type: biochemical; conditions: reaction solution of the HMBPP assay, 8M H2SO4, 37° C. 30 min; indicates DMAPP
Experimental: as §1, with “HMBPP,” for “DMAPP,”
In addition, after the reaction, the reaction solution in the chromatotube was also analyzed to determine whether IPP and DMAPP were produced. Since DMAPP can spontaneously produce isoprene under acidic conditions, the amount of DMAPP in the reaction solution can be determined by determining the amount of isoprene produced in the reaction solution under acidic conditions. In brief, under anaerobic conditions, 50 μL reaction solution was put in another 5 ml chromatotube, and diluted with cold water to a volume of 500 μL, and an equal volume of 8M H2SO4 was added; then, the chromatotube was sealed immediately, and incubated at 37° C. for 30 min. After the incubation, the amount of isoprene in the headspace gas was determined by the above-mentioned GC-MS method, to determine whether the reaction solution contained DMAPP or not.

[6] = In vitro activity assay using HMBPP as a substrate (headspace gas GC-MS); assay type: biochemical; conditions: for Production of 2-methyl-2-butene or not / Production of 3-methyl-1-butene or not / Isoprene produced in the reaction system: 1 mM HMBPP, 0.5 μM protein, 37° C. 1 h, headspace gas; for Isoprene produced in the reaction system: ferredoxin, FNR, NADPH, anaerobic
Experimental: as §1, with “HMBPP,” for “DMAPP,”
After the reaction, the headspace gas in the chromatotube was collected, and was subjected to gas chromatography-mass spectrometry (GC-MS). In brief, the gas was analyzed by Agilent Technologies 7890B GG/5977A MSD equipped with Agilent HP-PLOT Al2O3/S GC column (25 m, 0.32 mm, 8.00 μm, 7 inch cage), wherein He gas was used as a carrier gas at a flow rate of 2 ml/min. Later, the experimental data of the test sample (peak retention time, peak area, mass spectrogram, etc.) was compared with the experimental data of the standard substance (isoprene, 3-methyl-1-butene and 2-methyl-2-butene) to identify the gas components and perform quantitative analysis.

## CC(C)=CCOP(=O)(O)OP(=O)(O)O [DMAPP, dimethylallyl pyrophosphate]
[1]
  Km value: reaches the level of mM
[2]
  maximum reaction activity: about 6.2 nmol min^−1 mg^−1

B1: wild-type IspH: IspH protein from alkaliphilic Bacillus sp. N16-5, amino acid sequence SEQ ID NO: 2 (protein)
chain: T1 sequence (A0A9Q4B1R3 1-318)
modifications: Bacillus sp. N16-5
[3]
  catalytic activity on IPP: none
[4]
  conversion of DMAPP to isoamylene (2-methyl-2-butene and 3-methyl-1-butene): produce isoamylene
[5]
  isoprene produced by treating the reaction solution with acid: 696.3 μg L^−1 OD^−1
[6]
  Production of 2-methyl-2-butene or not: yes
  Production of 3-methyl-1-butene or not: yes
  Isoprene produced in the reaction system: 104.4 μg L^−1 OD^−1
[6]; headspace gas in different phases of the HMBPP assay
  activity of converting HMBPP to isoamylene directly: does not have the activity of converting HMBPP to isoamylene directly
[6]; summary of the HMBPP assay
  products formed from HMBPP as a substrate (isoprene, isoamylene, IPP, DMAPP): can use HMBPP as a substrate to produce isoprene, isoamylene, IPP and DMAPP

B2: IspH-E133Q: IspH mutant, glutamic acid to glutamine at position 133 of SEQ ID NO: 2 (SEQ ID NO: 4) (protein)
chain: T1 sequence (A0A9Q4B1R3 1-318) with E133Q
modifications: Mutant protein E133Q
[5]
  isoprene produced by treating the reaction solution with acid: 6.1 μg L^−1 OD^−1
[6]
  Production of 2-methyl-2-butene or not: no
  Production of 3-methyl-1-butene or not: no
  Isoprene produced in the reaction system: 106.4 μg L^−1 OD^−1

Reference: patent US10287569B2, “Enzyme for biosynthesis of isoprene and isopentenyl, and mutant thereof” (INSTITUTE OF MICROBIOLOGY, CHINESE ACADEMY OF SCIENCES, priority 2016, dated 2019)
